Results taken from publication PMC10850787.

What was measured:
[1] = target: PaFtsH1-6xHis (FtsH1 of Pseudomonas aeruginosa SG17M clone C) (Pseudomonas aeruginosa SG17M); test: negative-stain electron microscopy; detergent-solubilised enzyme at 0.4 mg/ml in storage buffer with 0.1% Igepal, 2% uranyl acetate; 3D reconstruction with C6 symmetry, about 22 A
[2] = target: PaFtsH1-6xHis (FtsH1 of Pseudomonas aeruginosa SG17M clone C) (Pseudomonas aeruginosa SG17M); test: SEC; analytical Superdex 200 (increase) 3.2/3.0 gel filtration column in Buffer PD (50 mM Tris-HCl pH 8.0, 80 mM NaCl, 10% glycerol, 2 mM beta-mercaptoethanol, 0.1% NP-40); native mass from molecular weight standards; hexamer plus NP-40 micelles
[3] = target: PaFtsH2-6xHis (FtsH2 of Pseudomonas aeruginosa SG17M clone C, tLST genomic island) (Pseudomonas aeruginosa SG17M); test: negative-stain electron microscopy; detergent-solubilised enzyme at 0.4 mg/ml in storage buffer with 0.1% Igepal, 2% uranyl acetate; 3D reconstruction with C6 symmetry, about 22 A
[4] = target: PaFtsH2-6xHis (FtsH2 of Pseudomonas aeruginosa SG17M clone C, tLST genomic island) (Pseudomonas aeruginosa SG17M); test: SEC; analytical Superdex 200 (increase) 3.2/3.0 gel filtration column in Buffer PD (50 mM Tris-HCl pH 8.0, 80 mM NaCl, 10% glycerol, 2 mM beta-mercaptoethanol, 0.1% NP-40); native mass from molecular weight standards; hexamer plus NP-40 micelles

| Substance | stoichiometry N [1] | stoichiometry N [2] | stoichiometry N [3] | stoichiometry N [4] |
| --- | --- | --- | --- | --- |
| PaFtsH1-6xHis (FtsH1 of Pseudomonas aeruginosa SG17M clone C) (enzyme) | 6 | 6 | – | – |
| PaFtsH2-6xHis (FtsH2 of Pseudomonas aeruginosa SG17M clone C, tLST genomic island) (enzyme) | – | – | 6 | 6 |
